# Biological target: the molecule itself
# Assay: crystal structure; vapor diffusion, 298 K; protein 6 mg/ml in 150 mM NaCl, 10 mM Tris-HCl, 1 mM DTT pH 7.5; reservoir 0.01 M cobalt chloride, 0.1 M sodium acetate pH 4.8, 1 M 1,6-hexanediol; 2.3 A; four monomers in the asymmetric unit
protein,measurement,value
"Rab-binding domain of Rab11 family-interacting protein 2 (domain or fragment, Homo sapiens, not FIP2 residues by the stated limits 439-512; Expression vector pNIC-Bsa4 with a TEV protease cleavage site; tag cleaved with TEV before crystallization; In the crystal at least the first seven and the last 15 residues are disordered (monomers seen from 445-451 to 496 or 497); also called FIP2; RBD of FIP2; source: Escherichia coli BL21(DE3), purified (nickel agarose, TEV cleavage, Mono Q, …)) GSHMSNPFDATAGYRSLTYEEVLQELVKHKELLRRKDTHIRELEDYIDNLLVRVMEETPSILRVPYEPSRKAGKFSNS",stoichiometry N,4
